Substitutions are numbered along the chain they refer to.
T1: Peptide 4: Biotin-AGGGGSGGGGSGGGGSAAA-Tyr-acid (N-terminal biotin; C-terminal acid)
T1 construct: Control peptide without PC
T1 peptide: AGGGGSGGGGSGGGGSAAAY

T2: Peptide 8: Biotin-AEAAAKEAAAKEAAAKEAAAKAAA-Tyr-acid (N-terminal biotin; C-terminal acid)
T2 construct: Control peptide without PC
T2 peptide: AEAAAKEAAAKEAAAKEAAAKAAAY

B1: PcOxP_DB03_C10 (scFv, V domains shown)
VH: EVQLLESGGGLVQPGGSLRLSCAASGFTFSSYYMEWVRQAPGKGLEWVAASRNKANEYTTEYADSVKGRFTISRDNSKNTLYLQMNSLRAEDTAVYYCARDYYGSSYWYFDVWGQGTLVTVSS
VL: DIVMTQSPDSLAVSLGERATINCTASESLYSSKHKVHYLAWYQQKPGQPPKLLIYGAGNRYIGVPDRFSGSGSGTDFTLTISSLQAEDVAVYYCAQFYSYPLTFGGGTKVEIK
notes: scFv in periplasmic extract
B2: PcOxP_DB04_A04 (scFv, V domains shown)
VH: B1 VH with S31D, Y32F, A55W, E57D
VL: B1 VL with E27Q, L29V, H34N, V36K, G58S, S99R
notes: scFv in periplasmic extract
B3: PcOxP_DB03_D03 (scFv, V domains shown)
VH: B1 VH with S31D, E57D, G104F
VL: B1 VL with G58S
notes: scFv in periplasmic extract
B4: PcOxP_DB03_E12 (scFv, V domains shown)
VH: B1 VH with F27E, S31D, Y32F, A55W, E57D
VL: B1 VL with H37N, G58S
notes: scFv in periplasmic extract
B5: PcOxP_DB03_G09 (scFv, V domains shown)
VH: B1 VH with T28S, S31D, Y32F, A55W, E57D
VL: B1 VL with G58S, Q96S
notes: scFv in periplasmic extract
B6: PcOxP_DB03_D02 (scFv, V domains shown)
VH: B1 VH with S31D, E57D
VL: B1 VL with G58T, Q96E
notes: scFv in periplasmic extract
B7: PcOxP_DB03_G11 (scFv, V domains shown)
VH: B1 VH with E57D
VL: B1 VL with T24K, A25S, E27Q, L29V, Y30L, V36K, H37N, G58S
notes: scFv in periplasmic extract
B8: PcOxP_DB03_D10 (scFv, V domains shown)
VH: B1 VH with F29T, S31D, Y32F, E57G
VL: B1 VL with G58S, N59G
notes: scFv in periplasmic extract
B9: PcOxP_DB03_F03 (scFv, V domains shown)
VH: B1 VH with S31D, Y32Q, A55N, E57D, S105A
VL: B1 VL with E27Q, L29V, V36K, G58N, A95G
notes: scFv in periplasmic extract
B10: PcOxP_DB04_A05 (scFv, V domains shown)
VH: B1 VH with S31D, Y32F, M34I, E57D
VL: B1 VL with G58S, Y61E
notes: scFv in periplasmic extract
B11: PcOxP_DB03_E03 (scFv, V domains shown)
VH: B1 VH with F29E, S31D, Y32F, E57D
VL: DIVMTQSPDSLAVSLGERATINCKSSQSLLYSKNNVNYLAWYQQKPGQPPKLLIYGESNRYIGVPDRFSGSGSGTDFTLTISSLQAEDVAVYYCAQFYEYPLTFGGGTKVEIK
notes: scFv in periplasmic extract
B12: PcOxP_DB03_G01 (scFv, V domains shown)
VH: B1 VH with S31D, Y32G, E57F, Y102H
VL: B1 VL with G58S, S99N
notes: scFv in periplasmic extract
B13: PcOxP_DB03_H02 (scFv, V domains shown)
VH: B1 VH with F29E, S31D, Y32F, A55Y, E57D
VL: B1 VL with G58Q
notes: scFv in periplasmic extract
B14: PcOxP_DB03_F02 (scFv, V domains shown)
VH: B1 VH with E57D, G104D
VL: B1 VL with A25S, Y30L, G58S, I62T
notes: scFv in periplasmic extract
B15: PcOxP_DB03_F11 (scFv, V domains shown)
VH: B1 VH with S31D, E57S, E61A
VL: B11 VL with K24T, K33S, N35K, V36K, N37H, E57A
notes: scFv in periplasmic extract
B16: PcOxP_DB03_G12 (scFv, V domains shown)
VH: B1 VH with S31D, A55Y, E57D
VL: B1 VL with T24K, A25S, L29V, V36K, G58S
notes: scFv in periplasmic extract
B17: PcOxP_DB03_F05 (scFv, V domains shown)
VH: B1 VH with S31D, A55G, E57D, E61A, Y103F
VL: B1 VL with E27Q, L29V, K35N, V36K, G58S, R60P
notes: scFv in periplasmic extract
B18: PcOxP_DB03_E04 (scFv, V domains shown)
VH: B1 VH with E57D
VL: B1 VL with G58S, I62L
notes: scFv in periplasmic extract
B19: PcOxP_DB03_F07 (scFv, V domains shown)
VH: B1 VH with F29Q, S31D, Y32F, A55G, E57S, E61A
VL: B1 VL with S32G, G58S
notes: scFv in periplasmic extract
B20: PcOxP_DB03_H10 (scFv, V domains shown)
VH: B1 VH with S30D, S31D, Y32F, K54E, E57D
VL: B1 VL with S99H
notes: scFv in periplasmic extract
B21: PcOxP_DB03_D12 (scFv, V domains shown)
VH: B1 VH with F29N, S31D, Y32F, E57D, Y62L
VL: B1 VL with G58S
notes: scFv in periplasmic extract
B22: PcOxP_DB04_A11 (scFv, V domains shown)
VH: B1 VH with S31D, E57T
VL: B1 VL with L29V, Y30L, V36K, H37N, G58S, N59T
notes: scFv in periplasmic extract
B23: PcOxP_DB03_E11 (scFv, V domains shown)
VH: B1 VH with S31D, Y32G, E57D
VL: B1 VL with T24K, A25S, H34N, G58S, S99H
notes: scFv in periplasmic extract

Biological target: T1, Peptide 4: …
Test: scFv ELISA
In short: (§1)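 Bound scFv was read as OD450 after HRP–anti-V5 detection, TMB development and HCl stop. PPE with BSA was incubated 1 h at RT on BSA-blocked wells coated overnight at 4° C. with peptide, or on streptavidin wells loaded 1 h with biotinylated PC-peptides at 1 μg/mL.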

| OD450 | Binder |
| --- | --- |
| 0.05 OD450 | B1 |
| 0.08 OD450 | B2 |
| 0.04 OD450 | B3 |
| 0.06 OD450 | B4 |
| 0.05 OD450 | B5 |
| 0.05 OD450 | B6 |
| 0.05 OD450 | B7 |
| 0.05 OD450 | B8 |
| 0.05 OD450 | B9 |
| 0.04 OD450 | B10 |
| 0.04 OD450 | B11 |
| 0.05 OD450 | B12 |
| 0.05 OD450 | B13 |
| 0.05 OD450 | B14 |
| 0.06 OD450 | B15 |
| 0.06 OD450 | B16 |
| 0.05 OD450 | B17 |
| 0.06 OD450 | B18 |
| 0.05 OD450 | B19 |
| 0.04 OD450 | B20 |
| 0.04 OD450 | B21 |
| 0.07 OD450 | B22 |
| 0.05 OD450 | B23 |

Biological target: T2, Peptide 8: …
Test: scFv ELISA
In short: as §1

| OD450 | Binder |
| --- | --- |
| 0.04 OD450 | B1 |
| 0.08 OD450 | B2 |
| 0.04 OD450 | B3 |
| 0.06 OD450 | B4 |
| 0.05 OD450 | B5 |
| 0.04 OD450 | B6 |
| 0.05 OD450 | B7 |
| 0.06 OD450 | B8 |
| 0.05 OD450 | B9 |
| 0.04 OD450 | B10 |
| 0.04 OD450 | B11 |
| 0.05 OD450 | B12 |
| 0.04 OD450 | B13 |
| 0.05 OD450 | B14 |
| 0.06 OD450 | B15 |
| 0.05 OD450 | B16 |
| 0.04 OD450 | B17 |
| 0.04 OD450 | B18 |
| 0.05 OD450 | B19 |
| 0.07 OD450 | B20 |
| 0.04 OD450 | B21 |
| 0.08 OD450 | B22 |
| 0.04 OD450 | B23 |

Biological target: Peptide 5: Biotin-…-[Tyr(PC)]-acid
Test: scFv ELISA

| OD450 | Binder |
| --- | --- |
| 1.1 OD450 | B1 |
| 1.9 OD450 | B2 |
| 1.11 OD450 | B3 |
| 0.88 OD450 | B4 |
| 1.07 OD450 | B5 |
| 1.37 OD450 | B6 |
| 0.72 OD450 | B7 |
| 1.41 OD450 | B8 |
| 1.93 OD450 | B9 |
| 1.29 OD450 | B10 |
| 0.79 OD450 | B11 |
| 1.19 OD450 | B12 |
| 1.69 OD450 | B13 |
| 1.68 OD450 | B14 |
| 1.43 OD450 | B15 |
| 1.91 OD450 | B16 |
| 1.04 OD450 | B17 |
| 1.2 OD450 | B18 |
| 1.19 OD450 | B19 |
| 0.39 OD450 | B20 |
| 0.3 OD450 | B21 |
| 1.6 OD450 | B22 |
| 1.58 OD450 | B23 |

Biological target: BSA (UniProt P02769)
Test: scFv ELISA

Chain of BSA (P02769 25-607 limits assumed): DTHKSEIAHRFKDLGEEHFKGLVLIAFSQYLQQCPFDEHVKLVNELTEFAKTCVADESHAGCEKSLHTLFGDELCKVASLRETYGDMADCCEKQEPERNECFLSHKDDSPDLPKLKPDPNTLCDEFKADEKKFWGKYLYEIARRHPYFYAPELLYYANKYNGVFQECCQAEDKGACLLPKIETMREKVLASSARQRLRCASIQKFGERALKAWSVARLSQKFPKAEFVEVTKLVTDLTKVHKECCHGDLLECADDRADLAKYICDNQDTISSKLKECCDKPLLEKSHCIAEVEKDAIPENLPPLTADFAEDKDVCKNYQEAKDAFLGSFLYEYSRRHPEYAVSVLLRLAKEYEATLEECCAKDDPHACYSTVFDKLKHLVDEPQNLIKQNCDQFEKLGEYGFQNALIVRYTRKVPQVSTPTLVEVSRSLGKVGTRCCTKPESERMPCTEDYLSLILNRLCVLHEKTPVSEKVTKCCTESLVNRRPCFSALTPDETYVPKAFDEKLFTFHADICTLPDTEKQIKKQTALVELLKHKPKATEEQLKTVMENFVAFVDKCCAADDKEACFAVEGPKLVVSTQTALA

| OD450 | Binder |
| --- | --- |
| 0.07 OD450 | B1 |
| 0.11 OD450 | B2 |
| 0.1 OD450 | B3 |
| 0.06 OD450 | B4 |
| 0.07 OD450 | B5 |
| 0.09 OD450 | B6 |
| 0.1 OD450 | B7 |
| 0.06 OD450 | B8 |
| 0.08 OD450 | B9 |
| 0.06 OD450 | B10 |
| 0.05 OD450 | B11 |
| 0.09 OD450 | B12 |
| 0.05 OD450 | B13 |
| 0.07 OD450 | B14 |
| 0.12 OD450 | B15 |
| 0.08 OD450 | B16 |
| 0.06 OD450 | B17 |
| 0.08 OD450 | B18 |
| 0.08 OD450 | B19 |
| 0.05 OD450 | B20 |
| 0.06 OD450 | B21 |
| 0.1 OD450 | B22 |
| 0.07 OD450 | B23 |

Biological target: Peptide 1: Biotin-…-[Tyr(PC)]-acid
Test: scFv ELISA

| OD450 | Binder |
| --- | --- |
| 1.1 OD450 | B1 |
| 1.09 OD450 | B2 |
| 0.73 OD450 | B3 |
| 0.57 OD450 | B4 |
| 0.74 OD450 | B5 |
| 0.67 OD450 | B6 |
| 0.26 OD450 | B7 |
| 1.19 OD450 | B8 |
| 1.13 OD450 | B9 |
| 0.72 OD450 | B10 |
| 0.27 OD450 | B11 |
| 0.66 OD450 | B12 |
| 1.07 OD450 | B13 |
| 1.56 OD450 | B14 |
| 1.47 OD450 | B15 |
| 1.57 OD450 | B16 |
| 0.73 OD450 | B17 |
| 0.96 OD450 | B18 |
| 0.53 OD450 | B19 |
| 0.24 OD450 | B20 |
| 0.2 OD450 | B21 |
| 0.64 OD450 | B22 |
| 1.4 OD450 | B23 |

Reference: US20250320312A1 (OXITOPE PHARMA B V, published 2025)
